“Also recorded” adds a separate entry of the source.

The subject of one assay is EphA2. Nature of the assay: EphA2 tyrosine phosphorylation in MDA-MB-231 cells (immunoprecipitation, phosphotyrosine western blot). It counts as cell-based. Conditions: MDA-MB-231 monolayers, single dose 5 μg/ml, 37° C. The method, then:
FIGS. 2A-2D: EphA2 antibodies promote EphA2 tyrosine phosphorylation in MDA-MB-231 cells. Monolayers of MDA-MB-231 cells were incubated in the presence of a single dose of 5 μg/ml (A, C) Eph099B-208.261 or (B, D) EA2 for the indicated time at 37° C. Cell lysates were then immunoprecipitated with an EphA2-specific antibody, resolved by SDS-PAGE and subjected to western blot analysis with a phosphotyrosine-specific antibody (A, B). The membranes were stripped and re-probed with the EphA2-specific antibody used in the immunoprecipitation as a loading control (C, D).
Monolayers of MDA-MB-231 cells were incubated in the presence of a single dose of 5 μg/ml Eph099B-233.152 at 37° C. Cell lysates were then immunoprecipitated with D7 (an EphA2-specific antibody), resolved by SDS-PAGE and subjected to western blot analysis with (A) a phosphotyrosine-specific antibody or (B) an EphA2-specific antibody.
EphA2 antibodies promoted tyrosine phosphorylation and degradation of EphA2 in MDA-MB-231 cells. Monolayers of cells were incubated in the presence of EphA2 agonistic antibodies or control at 37° C. Cell lysates were then immunoprecipitated with an EphA2-specific antibody (D7, purchased from Upstate Biologicals, Inc., Lake Placid, N.Y. and deposited with the American Type […] Collection on Dec. 8, 2000, and assigned ATCC number PTA 2755), resolved by SDS-PAGE and subjected to western blot analysis with a phosphotyrosine-specific antibody (PY20 or 4G10, purchased from Upstate Biologicals, Inc., Lake Placid, N.Y.). […] Some membranes were stripped and re-probed with the EphA2-specific antibody used in the immunoprecipitation (D7) as a loading control (FIGS. 2C-2D).
Western blot analyses and immunoprecipitations were performed as described previously (Zantek et al., 1999, Cell Growth Diff. 10:629-38, which is incorporated by reference in its entirety). […] Antibody binding was detected by enhanced chemiluminescence (Pierce, Rockford, Ill.) and autoradiography (Kodak X-OMAT; Rochester, N.Y.).
(In general: Immunoblotting shows a protein as a band on a membrane.)

Assay [1] deals with MDA-MB-231 breast cancer cells implanted subcutaneously. Nature of the assay: Tumor growth and survival in vivo, MDA-MB-231 implanted subcutaneously. The arrangement: species or system athymic mice. Conditions: for Growth of MDA-MB-231 cells implanted subcutaneously: 6mg/kg intraperitoneally twice a week for 3 weeks, versus PBS or 1A7. The method, then: MDA-MB-231 cells were implanted subcutaneously into athymic mice. After the tumors had grown to an average volume of 100 mm^3, mice were administered 6 mg/ml Eph099B-233.152 or PBS control intraperitoneally twice a week for 3 weeks. (A) Tumor Growth. Tumor growth was assessed and expressed as a ratio of the tumor volume divided by initial tumor volume (100 mm^3). Control mice are indicated by circles and Eph099B-233.152-treated mice are indicated by squares. Arrows indicate time of Eph099B-233.152 or PBS administration. (B) Survival. Tumor growth was allowed to proceed until tumor volume reached 1000 mm^3. Survival of the mice was assessed by scoring the percent of mice living each day post treatment. Control mice are indicated by grey and Eph099B-233.152-treated mice are indicated by black.
FIGS. 7A-7D: The EphA2 antibodies, EA2, Eph099B-208.261, and Eph099B-233.152, inhibit tumor cell growth in vivo. MDA-MB-231 breast cancer cells were implanted (A) orthotopically or (B) subcutaneously into athymic mice. (C) A549 lung cancer cells were implanted subcutaneously into athymic mice. After the tumors had grown to an average volume of 100 mm^3, mice were administered 6 mg/kg of the indicated antibody or negative control (PBS or 1A7 antibody) intraperitoneally twice a week for 3 weeks. Tumor growth was assessed and expressed as a ratio of the tumor volume divided by initial tumor volume (100 mm^3). (D) MDA-MB-231 breast cancer cells were implanted subcutaneously into athymic mice. After the tumors had grown to an average volume of 100 mm^3, mice were administered 6 mg/kg of the indicated antibody or negative control intraperitoneally twice a week for 3 weeks. Total tumor volume was determined after sacrifice. Negative control is black, EA2 is white, Eph099B-208.261 is dark grey, and Eph099B-233.152 is light grey.
The ability of the antibodies of the invention to inhibit tumor cancer growth in vivo was assayed. Eph099B-233.152 can inhibit tumor cell growth in vivo and extend survival time of tumor-bearing mice. Briefly, 5×10^6 MDA-MB-231 breast cancer cells were implanted subcutaneously into athymic mice. After the tumors had grown to an average volume of 100mm^3, mice were administered 6mg/ml Eph099B-233.152 or PBS control intraperitoneally twice a week for 3 weeks. Tumor growth was assessed and expressed as a ratio of the tumor volume divided by initial tumor volume (100 mm^3). […] Tumor growth was allowed to proceed until tumor volume reached 1000 mm^3. Survival of the mice was assessed by scoring the percent of mice living each day post treatment. […] By day 36, all of the mice in the control group had died in contrast with only 70% of the mice admixture Eph099B-233.152.
5×10^6MDA-MB-231 breast cancer cells were implanted orthotopically or subcutaneously and 5×10^6 A549 lung cancer cells were implanted subcutaneously into athymic mice. After the tumors had grown to an average volume of 100 mm^3, mice were administered 6mg/kg of an EphA2 agonistic antibody or negative control (PBS or 1A7 antibody) intraperitoneally twice a week for 3 weeks. Animals were generally sacrificed at least two weeks after the last treatment or when tumors exceeded 2000 mm^3. Tumor growth was assessed and expressed either as a ratio of the tumor volume divided by initial tumor volume (100 mm^3) or as total tumor volume. Growth of MDA-MB-231 cells implanted orthotopically was inhibited by EA2 (FIG. 7A). Growth of MDA-MB-231 cells implanted subcutaneously was inhibited by EA2, Eph099B-208.261, and Eph099B-233.152 (FIG. 7B, D). Growth of A549 cells implanted subcutaneously was inhibited by EA2, or Eph099B-208.261 (FIG. 7C).

EphA2, sequence (P29317 24-976): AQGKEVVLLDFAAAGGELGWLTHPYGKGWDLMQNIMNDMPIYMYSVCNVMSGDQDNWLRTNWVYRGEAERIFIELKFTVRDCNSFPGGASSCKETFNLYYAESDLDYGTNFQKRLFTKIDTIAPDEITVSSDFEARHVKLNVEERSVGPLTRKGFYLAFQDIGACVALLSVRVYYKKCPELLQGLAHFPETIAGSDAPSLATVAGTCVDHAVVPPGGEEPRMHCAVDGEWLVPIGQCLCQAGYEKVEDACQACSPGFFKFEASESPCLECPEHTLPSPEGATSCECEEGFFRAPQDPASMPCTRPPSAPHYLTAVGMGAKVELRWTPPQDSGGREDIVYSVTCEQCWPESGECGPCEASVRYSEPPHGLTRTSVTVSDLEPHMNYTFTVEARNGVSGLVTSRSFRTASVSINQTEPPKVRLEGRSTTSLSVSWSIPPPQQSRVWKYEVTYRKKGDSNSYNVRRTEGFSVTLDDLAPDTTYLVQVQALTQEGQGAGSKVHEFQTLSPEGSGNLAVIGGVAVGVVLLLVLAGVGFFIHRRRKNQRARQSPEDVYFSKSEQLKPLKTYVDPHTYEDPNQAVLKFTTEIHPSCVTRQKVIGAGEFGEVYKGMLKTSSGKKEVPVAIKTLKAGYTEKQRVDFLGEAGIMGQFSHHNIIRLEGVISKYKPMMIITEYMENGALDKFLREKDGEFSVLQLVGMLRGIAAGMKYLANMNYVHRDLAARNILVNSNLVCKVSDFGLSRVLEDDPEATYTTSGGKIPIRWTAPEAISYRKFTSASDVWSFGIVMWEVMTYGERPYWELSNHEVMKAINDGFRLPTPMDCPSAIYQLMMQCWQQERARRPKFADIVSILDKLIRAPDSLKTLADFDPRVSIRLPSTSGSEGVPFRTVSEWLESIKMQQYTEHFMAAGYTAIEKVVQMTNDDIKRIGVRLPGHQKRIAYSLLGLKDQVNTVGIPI

B1: EA2: EphA2 agonistic monoclonal antibody; ATCC deposit no. PTA-4380; co-pending application Ser. No. 10/436,783; VL SEQ ID NO:33, VH SEQ ID NO:37 (antibody, listed as Homo Sapiens, V domains shown)
VH: DVKLVESGGGLVKPGGSLKLSCAASGFTFSSYTMSWVRQTPEKRLEWVATISSGGTYTYYPDSVKGRFTISRDNAKNTLYLQMSSLKSEDTAMYYCTREAIFTYWGQGTLVTVSA
VL: DIKMTQSPSSMYASLGERVTITCKASQDINNYLSWFQQKPGKSPKTLIYRANRLVDGVPSRFSGSGSGQDYSLTISSLEYEDMGIYYCLKYDEFPYTFGGGTKLEIK
As for B1, the EphA2 tyrosine phosphorylation entry in the assay on EphA2 is “increased EphA2 phosphorylation”. Further, in assay [1], the “Growth of MDA-MB-231 cells implanted subcutaneously” value is listed as “inhibited”.

B2: Eph099B-233.152: EphA2 monoclonal antibody; hybridoma ATCC PTA-5194; VL SEQ ID NO:17, VH SEQ ID NO:21 (antibody, listed as Homo sapiens, V domains shown)
VH: EVKLVESGGGLVQPGGSLSLSCAASGFTFTDYSMNWVRQPPGKALEWLGFIRNKANDYTTEYSASVKGRFTISRDNSQSILYLQMNALRAEDSATYYCVRYPRYHAMDSWGQGTSVTVSS
VL: DIVLTQSPATLSVTPGDSVNLSCRASQSISNNLHWYQQKSHESPRLLIKYVFQSISGIPSRFSGSGSGTDFTLSINSVETEDFGMYFCQQSNSWPLTFGAGTKLELK
As for B2, the EphA2 tyrosine phosphorylation result with EphA2 is “increased EphA2 phosphorylation; also recorded: promotes EphA2 tyrosine phosphorylation”. The “Growth of MDA-MB-231 cells implanted subcutaneously” value in assay [1] is given as “inhibited”. Moreover, the “Mice that had died by day 36” value in assay [1] (6mg/ml intraperitoneally twice a week for 3 weeks, all control mice had died) was found to be 70%. For the same molecule, the “Survival of the mice (percent of mice living each day post treatment)” value in assay [1] (6mg/ml intraperitoneally twice a week for 3 weeks, versus PBS) is given as “A greater percentage of mice survived at each time point examined”. The “Tumor growth (tumor volume divided by initial tumor volume)” value in assay [1] (6mg/ml intraperitoneally twice a week for 3 weeks, versus PBS, after 30 days) was “smaller tumors than mice administered PBS; also recorded: inhibits tumor cell growth in vivo”.

B3: Eph099B-208.261: EphA2 monoclonal antibody; hybridoma ATCC PTA-4573; VL SEQ ID NO:1, VH SEQ ID NO:5 (antibody, listed as Homo sapiens, V domains shown)
VH: QVQLQQPGAELVKPGASVKLSCKASGYTFTSYWMHWVKQRPGQGLEWIGMIHPNSGSTNYNEKFKSKATLTVDKSSSTAYMRLSSLTSEDSAVYYCARGGNMVGGGYWGQGTTLTVSS
VL: QIVLTQSPALMSASPGEKVTMTCSASSSVSYMYWYQQKPRSSPKPWIYLTTNLASGVPARFSGSGSGTSYSLTISSMEAEDAATYYCQQWSSNPFTFGSGTKLEIR
On to B3, for which the EphA2 tyrosine phosphorylation entry in the assay with EphA2 is listed as “increased EphA2 phosphorylation”. In addition, in assay [1], the “Growth of MDA-MB-231 cells implanted subcutaneously” value was “inhibited”.

These data come from patent publication US20100278838A1, “EPHA2 MONOCLONAL ANTIBODIES AND METHODS OF USE THEREOF” (MEDIMMUNE, LLC, priority 2002, published 2010).
